Test results published in publication PMC6317994 (Cell reports, 2018).

Molecular target: T1, Flag-tagged N-terminal domain of TET2 (residues 1–1127) (human, UniProt Q6N021 1-1127)
T1 sequence: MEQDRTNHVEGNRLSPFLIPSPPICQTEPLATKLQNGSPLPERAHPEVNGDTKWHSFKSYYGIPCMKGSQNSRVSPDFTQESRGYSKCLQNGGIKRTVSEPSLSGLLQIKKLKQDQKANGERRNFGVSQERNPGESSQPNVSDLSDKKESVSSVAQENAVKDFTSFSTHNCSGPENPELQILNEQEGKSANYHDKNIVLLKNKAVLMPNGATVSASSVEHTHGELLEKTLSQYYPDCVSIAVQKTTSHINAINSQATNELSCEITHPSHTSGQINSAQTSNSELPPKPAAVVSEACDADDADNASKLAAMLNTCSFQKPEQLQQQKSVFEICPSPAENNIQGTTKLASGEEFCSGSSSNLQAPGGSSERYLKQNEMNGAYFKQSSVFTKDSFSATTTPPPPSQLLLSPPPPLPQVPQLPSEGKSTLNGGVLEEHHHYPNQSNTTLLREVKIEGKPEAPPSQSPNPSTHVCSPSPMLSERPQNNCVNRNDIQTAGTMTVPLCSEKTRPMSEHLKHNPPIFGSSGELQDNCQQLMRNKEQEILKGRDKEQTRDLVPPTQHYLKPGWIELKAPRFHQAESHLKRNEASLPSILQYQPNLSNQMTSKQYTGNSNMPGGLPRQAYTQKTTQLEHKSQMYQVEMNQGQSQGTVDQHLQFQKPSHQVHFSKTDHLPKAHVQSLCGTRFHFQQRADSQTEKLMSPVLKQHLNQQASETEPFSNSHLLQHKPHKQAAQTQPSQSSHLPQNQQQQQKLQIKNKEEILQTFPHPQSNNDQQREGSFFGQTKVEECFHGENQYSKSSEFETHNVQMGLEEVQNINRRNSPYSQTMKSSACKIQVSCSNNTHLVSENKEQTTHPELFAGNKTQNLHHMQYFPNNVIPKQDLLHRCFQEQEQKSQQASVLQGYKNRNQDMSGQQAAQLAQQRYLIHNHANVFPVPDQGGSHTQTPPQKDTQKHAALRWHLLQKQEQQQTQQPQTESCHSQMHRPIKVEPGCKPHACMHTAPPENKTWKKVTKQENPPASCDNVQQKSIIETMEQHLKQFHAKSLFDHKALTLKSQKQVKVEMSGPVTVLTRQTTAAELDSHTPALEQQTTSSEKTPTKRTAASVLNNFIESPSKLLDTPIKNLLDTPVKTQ
Experiment: pull-down

binding result: binds
B1: SNIP1 purified from E. coli (GST tag removed) (natural protein)
chain: MKAVKSERERGSRRRHRDGDVVLPAGVVVKQERLSPEVAPPAHRRPDHSGGSPSPPTSEPARSGHRGNRARGVSRSPPKKKNKASGRRSKSPRSKRNRSPHHSTVKVKQEREDHPRRGREDRQHREPSEQEHRRARNSDRDRHRGHSHQRRTSNERPGSGQGQGRDRDTQNLQAQEEEREFYNARRREHRQRNDVGGGGSESQELVPRPGGNNKEKEVPAKEKPSFELSGALLEDTNTFRGVVIKYSEPPEARIPKKRWRLYPFKNDEVLPVMYIHRQSAYLLGRHRRIADIPIDHPSCSKQHAVFQYRLVEYTRADGTVGRRVKPYIIDLGSGNGTFLNNKRIEPQRYYELKEKDVLKFGFSSREYVLLHESSDTSEIDRKDDEDEEEEEEVSDS
